Results on 2 molecules are retold here after patent publication US7008623 (GlaxoSmithKline, dated 2006).

The target in assay [1] is T1, soluble CD23 (sCD23) (human, UniProt P06734 150-321, limits assumed).
T1 sequence (looked up): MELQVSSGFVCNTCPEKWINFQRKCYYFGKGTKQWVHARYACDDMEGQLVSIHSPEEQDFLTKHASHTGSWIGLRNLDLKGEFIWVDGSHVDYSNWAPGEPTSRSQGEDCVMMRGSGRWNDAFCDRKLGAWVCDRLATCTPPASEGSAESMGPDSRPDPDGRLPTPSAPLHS
Put plainly: ELISA, plate coated with sCD23, OD against antibody concentration. How it is done: (§1) The chimaeric antibody bound sCD23 in an ELISA assay. For the ELISA assay to determine sCD23 binding, EIA/RIA plates (Costar) were coated with 100 µl/well of 2 µg/ml sCD23 in 35 mM NaHCO_3, 15 mM Na_2CO_3, pH 9.3 overnight at 4° C. Plates were washed three times with 150 mM NaCl, 50 mM Trizma base, 0.1% (v/v) Tween-20, pH 7.4 (TBS/Tween), blocked for 1–2 hours at 22° C. with 100 µl/well of 2% bovine serum albumin in TBS/Tween, and washed three times with TBS/Tween.
(§2) The concentration of chimeric and humanised anti-CD23 antibody required for half-maximal binding to sCD23 was assayed using the sCD23 ELISA already described. Absorbance at 405 nm was plotted versus a range of concentrations of antibody to generate a sigmoidal curve with a "goodness of fit" or correlation coefficient of 1. The absorbance was read using a Molecular Devices plate reader (Menlo Park, Calif., USA) and Softmax (Molecular Devices Corp) software to calculate best fit by a log-logit algorithm then display the curve, equation parameters and correlation coefficient. A discussion of curve fitting appears in "Data Analysis and Quality Control of Assays: A Practical Primer", by R P Channing Rogers in Practical Immuno Assay, editor Wilfrid R Butt; published by Marcel Dekker, Inc., New York 1984. […] The value for x in ng/ml was calculated for the following equation: […]
For orientation: In an ELISA, binding on a coated surface is turned into a signal by an enzyme label.

The target in assay [2] is T1, soluble CD23 (sCD23). In words: ELISA, sCD23 coated on plate, antibody concentration for half-maximal binding (log-logit fit). How it is done:
as §1, §2

For assay [3], the target named is T2, purified recombinant CD23 (human, UniProt P06734 150-321, limits assumed).
T2 construct: also called CD23 antigen; immobilised CD23
T2 sequence (looked up): T1 sequence (looked up)
In words: Biacore SPR, recombinant CD23 immobilised on CM5; affinity (association) constant. How it is done: (§3) The association rate, dissociation rate and the dissociation rate constant for the binding of humanised anti-CD23 to the CD23 antigen was evaluated on the Biacore Biosensor. Briefly, purified recombinant CD23 was immobilised onto a CM5 sensor surface. Carboxyl groups on the dextran surface were activated by 1-ethyl-3(3-dimethylaminopropyl) carbidimide (EDCO/N-hydroxysuccimimide (NHS). Following activation, recombinant CD23 was passed over the surface to initiate immobilisation. Ethanolamine was then added to quench residual active groups. Humanised anti-CD23 diluted in HBS buffer was passed over the sensor surface. Binding of anti-CD23 to immobilised CD23 was monitored in real time for estimation of the association rate (M^-1 seq^-1). Dissociation of the CD23 and the anti-CD23 complex in buffer was also monitored for estimation of the dissociation rate (sec^-1). The dissociation constant (nM) was calculated from the dissociation and association rate. […] The affinity constant was determined to be approximately 9 ×10^10 Ka mol^-1.
In general terms: In SPR one partner is held on a chip, and binding of the other changes the refractive index at the surface.

Assay [4] has as its target T2, purified recombinant CD23. Put plainly: Biacore SPR, recombinant CD23 immobilised on CM5, antibody in solution; lower end of the range over 6 batches. How it is done: as §3
Assay [5] addresses T2, purified recombinant CD23. In words: Biacore SPR, recombinant CD23 immobilised on CM5, antibody in solution; upper end of the range over 6 batches. How it is done: as §3
The target of assay [6] is T2, purified recombinant CD23. Put plainly: Biacore SPR, recombinant CD23 immobilised on CM5, calculated from the rates; lower end of the range over 6 batches. How it is done: as §3

B1: chimaeric anti-CD23 antibody (murine C11 variable regions, human gamma 1 and human kappa constant regions) (antibody, human IgG1, V domains shown)
VH: EVKLEESGGGLVQPGGSMKLSCVASGFTFSGYWMSWVRQSPEKGLEWVAEIRLKSDNYATHYAESVKGKFTISRDDSKSRLYLQMNSLRAEDSGVYYCTDFIDWGQGTL
VL: DIVITQDELSNPVTSGESVSISCRSSKSLLYKDGKTYLNWFLQRPGQSPQLLMYLMSTRASGVSDRFSGSGSGTDFTLEISRVKAEDVGVYYCQQLVEYPFTFGSGTKLEIKR
notes: The VH is fused to the human IgG1 (gamma 1) constant region of Reichmann et al 1988 and the VL to the human kappa constant region of Reichmann et al 1988; It was transiently expressed in COS cells and tested as supernatant; The variable regions were amplified with signal-peptide primers, so the entries may include a leader, and no cleavage site is stated; also called chimeric CD23; chimaeric CD23 …
Usually EC50 (read off the curve) stands for the midpoint of the concentration-response curve. One may read the EC50 as the midpoint of the concentration-response curve. Low values mean greater potency, high ones weaker potency. In the case of B1, the “EC50 (read off the curve)” value in assay [1] is roughly 0.06 µg/mL. For the same molecule, in assay [2], the EC50 was 0.0163 µg/mL.

B2: humanised anti-CD23 antibody (IgG1 with mutations 248 Leu to Ala and 250 Gly to Ala, human kappa) (antibody, V domains shown)
VH: EVQLVESGGGLVKPGGSLRLSCAASGFTFSGYWMSWVRQAPGKGLEWVAEIRLKSDNYATHYAESVKGKFTISRDDSKSRLYLQMNSLKTEDTAVYYCTDFIDWGQGTLVTVSS
VL: DIVMTQSPLSLPVTPGEPASISCRSSKSLLYKDGKTYLNWYLQKPGQSPQLLIYLMSTRASGVPDRFSGSGSGTDFTLKISRVEAEDVGVYYCQQLVEYPFTFGQGTKVEIKR
notes: The light chain constant region is human kappa; also called humanised CD23 IgG1m
As a reminder, the koff is a measure of how fast the partners let go of each other. By kon is commonly meant a measure of how fast the partners come together. A word on the Kd: it is a measure of binding affinity in units of concentration. As for B2, the “EC50 (read off the curve)” value in assay [1] was roughly 0.03 µg/mL. Also, the Ka in assay [3] is roughly 9e+10 M⁻¹. The molecule further registered an EC50 in assay [2] of 0.015 µg/mL. Also, the values for the koff in assay [4] and in assay [5] were 1e-05 s⁻¹ and 2e-05 s⁻¹, respectively. Further, in assay [4], the on-rate (kon) fell in the range of 1.5e+06 to 1.85e+06 M⁻¹ s⁻¹. In addition, the Kd in assay [6] is 8 to 12 pM.
